Molecular target: FaoA-GUS fusion protein (UniProt P05804)
Chain of UniProt P05804 (P05804 whole entry, looked up, the tested form may be a part): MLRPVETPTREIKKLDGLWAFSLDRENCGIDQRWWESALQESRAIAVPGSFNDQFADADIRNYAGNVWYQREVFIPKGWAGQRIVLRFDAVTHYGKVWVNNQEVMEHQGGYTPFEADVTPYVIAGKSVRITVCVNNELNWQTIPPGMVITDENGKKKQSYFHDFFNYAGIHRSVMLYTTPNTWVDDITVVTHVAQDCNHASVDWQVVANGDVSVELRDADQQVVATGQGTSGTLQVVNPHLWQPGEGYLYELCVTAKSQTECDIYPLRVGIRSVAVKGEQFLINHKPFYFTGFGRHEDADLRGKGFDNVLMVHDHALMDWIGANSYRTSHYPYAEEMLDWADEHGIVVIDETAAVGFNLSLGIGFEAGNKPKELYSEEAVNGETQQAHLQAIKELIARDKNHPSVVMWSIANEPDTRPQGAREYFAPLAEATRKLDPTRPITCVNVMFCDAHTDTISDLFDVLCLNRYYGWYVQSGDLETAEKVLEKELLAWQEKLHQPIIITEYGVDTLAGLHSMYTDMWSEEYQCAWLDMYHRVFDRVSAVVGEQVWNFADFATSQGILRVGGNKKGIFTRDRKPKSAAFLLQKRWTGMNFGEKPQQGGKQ

Substance: FaoB polypeptide of the Pseudomonas putida FaoAB fatty acid oxidation multienzyme complex
- GUS activity (pmol MU/min), OS fraction of flax zygotic embryos, pmfG138:pmf224 (1:1): 386 pmol MU/min
- GUS activity (pmol MU/min), OS fraction of flax zygotic embryos, pmfG138:pmf224 (1:3): 440 pmol MU/min
- GUS activity (pmol MU/min), SN fraction of flax zygotic embryos, pmfG138:pmf224 (1:1): 175 pmol MU/min
- GUS activity (pmol MU/min), SN fraction of flax zygotic embryos, pmfG138:pmf224 (1:3): 214 pmol MU/min
- GUS activity (pmol MU/min), total homogenate of B. napus microspore embryos co-bombarded with pmfG138:pmf224: 85 pmol MU/min
- GUS activity in a GUS-FaoA fusion, transient expression in embryos: > 2 fold
- GUS specific activity, Ara-FaoA-GUS:pha-FaoB against Ara-FaoA-GUS, background subtracted, B. napus microspore embryos: 2 fold
- Specific activity (activity/mg prt), OS fraction of flax zygotic embryos, pmfG138:pmf224 (1:1) (activity/mg prt): 52.8
- Specific activity (activity/mg prt), OS fraction of flax zygotic embryos, pmfG138:pmf224 (1:3) (activity/mg prt): 79
- Specific activity (activity/mg prt), SN fraction of flax zygotic embryos, pmfG138:pmf224 (1:1) (activity/mg prt): 23.9
- Specific activity (activity/mg prt), SN fraction of flax zygotic embryos, pmfG138:pmf224 (1:3) (activity/mg prt): 38.4
- Specific activity (activity/mg prt), total homogenate of B. napus microspore embryos co-bombarded with pmfG138:pmf224 (activity/mg prt): 29.1

From patent publication US6586658
